# Measured values as given in patent publication US5605821, “Expression control sequences of the P-selectin gene” (Board of Regents of the University of Oklahoma).
# T1: NFKB2 (p52) homodimer (UniProt Q00653 Q00653:1-454)
# T1 sequence: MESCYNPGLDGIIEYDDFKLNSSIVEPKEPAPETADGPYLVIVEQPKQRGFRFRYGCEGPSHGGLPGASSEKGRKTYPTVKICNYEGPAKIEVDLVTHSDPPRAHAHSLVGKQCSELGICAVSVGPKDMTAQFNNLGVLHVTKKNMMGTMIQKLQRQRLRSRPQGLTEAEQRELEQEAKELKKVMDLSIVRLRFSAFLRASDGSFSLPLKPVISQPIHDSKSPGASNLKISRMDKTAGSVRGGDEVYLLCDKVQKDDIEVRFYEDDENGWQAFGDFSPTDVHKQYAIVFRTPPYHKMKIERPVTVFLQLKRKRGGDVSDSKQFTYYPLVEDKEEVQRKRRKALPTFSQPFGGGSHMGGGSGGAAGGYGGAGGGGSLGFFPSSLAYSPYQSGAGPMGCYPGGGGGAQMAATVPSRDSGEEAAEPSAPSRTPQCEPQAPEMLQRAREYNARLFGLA
# Tests used:
# [1] = biological target: Rel A homodimer (UniProt Q04206 Q04206:1-551); experiment: EMSA; settings: chain copies: 2 (stated); label: 32P
# Chain of Rel A homodimer (Q04206 whole entry, one chain of several): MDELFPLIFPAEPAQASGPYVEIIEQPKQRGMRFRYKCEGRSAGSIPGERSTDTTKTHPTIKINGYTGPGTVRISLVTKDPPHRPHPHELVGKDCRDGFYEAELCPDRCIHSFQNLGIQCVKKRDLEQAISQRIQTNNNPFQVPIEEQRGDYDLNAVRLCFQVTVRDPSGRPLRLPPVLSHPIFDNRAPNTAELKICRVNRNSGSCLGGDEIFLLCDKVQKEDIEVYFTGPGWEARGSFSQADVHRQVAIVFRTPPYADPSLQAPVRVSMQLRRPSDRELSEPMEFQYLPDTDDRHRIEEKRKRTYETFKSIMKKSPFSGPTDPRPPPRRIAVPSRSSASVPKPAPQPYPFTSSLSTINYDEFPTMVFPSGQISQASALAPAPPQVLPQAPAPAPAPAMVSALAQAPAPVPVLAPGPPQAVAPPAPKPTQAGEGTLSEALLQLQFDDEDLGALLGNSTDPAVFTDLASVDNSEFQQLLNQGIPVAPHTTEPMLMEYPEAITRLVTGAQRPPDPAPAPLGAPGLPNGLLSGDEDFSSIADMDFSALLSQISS
# [2] = biological target: T1, NFKB2 (p52) homodimer; experiment: EMSA; methylation interference shows contacts to GGGG on both strands; settings: chain copies: 2 (stated); label: 32P
# [3] = biological target: T2, NFKB1 (p50) homodimer (UniProt P19838 P19838:1-433); experiment: as above; settings: chain copies: 2 (stated); label: 32P
# T2 sequence (P19838 1-433, one chain of several): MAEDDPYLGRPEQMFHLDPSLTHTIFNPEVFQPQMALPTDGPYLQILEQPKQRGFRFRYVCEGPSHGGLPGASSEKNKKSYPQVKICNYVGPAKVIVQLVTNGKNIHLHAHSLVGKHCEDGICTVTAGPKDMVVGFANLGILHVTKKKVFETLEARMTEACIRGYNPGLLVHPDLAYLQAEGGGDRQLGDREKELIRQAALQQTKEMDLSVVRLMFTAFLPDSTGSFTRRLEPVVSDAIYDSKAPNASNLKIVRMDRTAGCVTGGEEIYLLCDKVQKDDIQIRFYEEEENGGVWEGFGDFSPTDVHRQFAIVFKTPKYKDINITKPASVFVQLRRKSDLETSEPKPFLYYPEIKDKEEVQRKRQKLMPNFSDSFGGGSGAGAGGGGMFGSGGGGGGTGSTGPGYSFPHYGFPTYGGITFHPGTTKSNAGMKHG
# [4] = biological target: T1, NFKB2 (p52) homodimer; experiment: EMSA; settings: chain copies: 2 (stated)
# [5] = biological target: T2, NFKB1 (p50) homodimer; experiment: EMSA; settings: chain copies: 2 (stated)
# [6] = biological target: T1, NFKB2 (p52) homodimer; experiment: EMSA; labeled oligonucleotides bound; settings: chain copies: 2 (stated); label: 32P
# [7] = biological target: T2, NFKB1 (p50) homodimer; experiment: EMSA; labeled oligonucleotides bound; settings: chain copies: 2 (stated); label: 32P
Binder,binding result [1],binding result [2],binding result [3],binding result [4],binding result [5],binding result [6],binding result [7]
P-selectin 4642-4664 (dsDNA) DNA 1: GGAAGGGGGTGACCCCTTGCCTC DNA 2: GAGGCAAGGGGTCACCCCCTTCC,no binding,binds,binds,–,–,–,–
"P-selectin 4642-4664 ATAG mutant (dsDNA, [none]) DNA 1: GGAAGGGGGTGAATAGTTGCCTC DNA 2: GAGGCAACTATTCACCCCCTTCC",–,–,–,no binding,no binding,–,–
P-selectin 4632-4672 (dsDNA) DNA 1: CATCTTCCATGGAAGGGGGTGACCCCTTGCCTCTTGGCAAC DNA 2: GTTGCCAAGAGGCAAGGGGTCACCCCCTTCCATGGAAGATG,no binding,–,–,–,–,binds,binds
